# Results as given in paper PMC3069011 (Molecular Biology of the Cell, 2011).
# B1: lamin A tail (residues 243-664), bacterially expressed and purified (domain or fragment, human, UniProt P02545 243-664, looked up)
# chain: DALQELRAQHEDQVEQYKKELEKTYSAKLDNARQSAERNSNLVGAAHEELQQSRIRIDSLSAQLSQLQKQLAAKEAKLRDLEDSLARERDTSRRLLAEKEREMAEMRARMQQQLDEYQELLDIKLALDMEIHAYRKLLEGEEERLRLSPSPTSQRSRGRASSHSSQTQGGGSVTKKRKLESTESRSSFSQHARTSGRVAVEEVDEEGKFVRLRNKSNEDQSMGNWQIKRQNGDDPLLTYRFPPKFTLKAGQVVTIWAAGAGATHSPPTDLVWKAQNTWGCGNSLRTALINSTGEEVAMRKLVRSVTVVEDDEDEDGDDLLHHHHGSHCSSSGDPAEYNLRSRTVLCGTCGQPADKASASGSGAQVGGPISSGSSASSVTVTRSYRSVGGSGGGSFGDNLVTRSYLLGNSSPRTQSPQNCSIM
# Target: T1, GST-Nup88 (human, UniProt Q99567 1-741)
# T1 sequence (looked up): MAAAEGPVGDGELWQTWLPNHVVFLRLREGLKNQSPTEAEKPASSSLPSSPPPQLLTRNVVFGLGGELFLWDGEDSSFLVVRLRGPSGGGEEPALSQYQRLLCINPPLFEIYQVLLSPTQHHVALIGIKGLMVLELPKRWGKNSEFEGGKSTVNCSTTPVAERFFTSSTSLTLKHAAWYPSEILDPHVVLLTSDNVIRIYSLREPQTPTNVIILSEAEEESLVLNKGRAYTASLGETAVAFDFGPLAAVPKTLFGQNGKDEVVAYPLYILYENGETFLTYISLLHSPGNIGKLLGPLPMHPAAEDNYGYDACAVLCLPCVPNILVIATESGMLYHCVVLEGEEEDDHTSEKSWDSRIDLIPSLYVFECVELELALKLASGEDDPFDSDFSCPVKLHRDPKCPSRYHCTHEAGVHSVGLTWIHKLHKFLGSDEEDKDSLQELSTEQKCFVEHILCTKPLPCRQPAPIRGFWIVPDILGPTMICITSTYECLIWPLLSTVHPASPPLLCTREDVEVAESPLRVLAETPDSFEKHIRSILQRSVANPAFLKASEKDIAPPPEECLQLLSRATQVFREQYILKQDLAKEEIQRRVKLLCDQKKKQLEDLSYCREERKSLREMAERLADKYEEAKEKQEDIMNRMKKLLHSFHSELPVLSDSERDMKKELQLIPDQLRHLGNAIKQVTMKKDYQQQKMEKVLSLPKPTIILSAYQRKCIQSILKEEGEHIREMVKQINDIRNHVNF
# Assay: far-Western, overlay or dot blot
binder,measurement,value
B1,binding result,binds
